Experimental data taken from publication doi:10.1101/2025.04.08.647683.

Legend:
[1] = target: T1, QuiR2 (Listeria monocytogenes EGD-e) (UniProt Q8Y543); experiment: EMSA
T1 sequence: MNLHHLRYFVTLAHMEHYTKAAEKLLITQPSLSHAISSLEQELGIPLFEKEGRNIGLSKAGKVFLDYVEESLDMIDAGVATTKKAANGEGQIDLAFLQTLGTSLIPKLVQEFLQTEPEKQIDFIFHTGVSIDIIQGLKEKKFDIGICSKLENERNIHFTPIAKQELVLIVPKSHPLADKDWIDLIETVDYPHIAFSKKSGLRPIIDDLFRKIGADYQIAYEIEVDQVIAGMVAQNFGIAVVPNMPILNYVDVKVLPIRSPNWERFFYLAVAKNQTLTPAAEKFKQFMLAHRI

[2] = target: T2, QuiR2;QuiR (Listeria monocytogenes EGD-e;Listeria monocytogenes EGD-e?) (UniProt Q8Y543+Q8Y9N7); experiment: EMSA
T2 sequence 1: T1 sequence
T2 sequence 2: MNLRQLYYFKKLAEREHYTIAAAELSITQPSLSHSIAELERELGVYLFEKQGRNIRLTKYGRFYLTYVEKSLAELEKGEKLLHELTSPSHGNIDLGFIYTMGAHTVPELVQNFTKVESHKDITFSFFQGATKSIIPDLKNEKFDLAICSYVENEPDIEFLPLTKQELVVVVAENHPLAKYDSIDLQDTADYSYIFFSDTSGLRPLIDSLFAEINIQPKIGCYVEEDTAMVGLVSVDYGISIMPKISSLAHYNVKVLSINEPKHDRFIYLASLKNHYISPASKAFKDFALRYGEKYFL

Question: What does the source list for “CGCAAGTTCATCGGTTAACCTCCTCGGAATGCCTTGATAACTCTATTGTAAGCGATTGTATAGAAAAAATCTATGGATAAATCGAAAAATATACATTAGATTAATAATTATTCCTGACTTATAATGAAAGAGAAATAAGATTGTGCATTATTGAACGTGAATAATGTAACAAATCATTTGCTGAGATTATAGTCGCAGGAGGCTTATTATGACAGATTATCCGAG (double strand) [qui1 intergenic region probe (225 nt)]”?
Answer: binding [1]: binds; binding [2]: binds
